Experimental data reported in paper PMC7485985 (2020).

Biological target: MBP-OsMYC2 (rice, UniProt Q336P5 1-699)
Assay: SPR

Chain of MBP-OsMYC2 (Q336P5 whole entry): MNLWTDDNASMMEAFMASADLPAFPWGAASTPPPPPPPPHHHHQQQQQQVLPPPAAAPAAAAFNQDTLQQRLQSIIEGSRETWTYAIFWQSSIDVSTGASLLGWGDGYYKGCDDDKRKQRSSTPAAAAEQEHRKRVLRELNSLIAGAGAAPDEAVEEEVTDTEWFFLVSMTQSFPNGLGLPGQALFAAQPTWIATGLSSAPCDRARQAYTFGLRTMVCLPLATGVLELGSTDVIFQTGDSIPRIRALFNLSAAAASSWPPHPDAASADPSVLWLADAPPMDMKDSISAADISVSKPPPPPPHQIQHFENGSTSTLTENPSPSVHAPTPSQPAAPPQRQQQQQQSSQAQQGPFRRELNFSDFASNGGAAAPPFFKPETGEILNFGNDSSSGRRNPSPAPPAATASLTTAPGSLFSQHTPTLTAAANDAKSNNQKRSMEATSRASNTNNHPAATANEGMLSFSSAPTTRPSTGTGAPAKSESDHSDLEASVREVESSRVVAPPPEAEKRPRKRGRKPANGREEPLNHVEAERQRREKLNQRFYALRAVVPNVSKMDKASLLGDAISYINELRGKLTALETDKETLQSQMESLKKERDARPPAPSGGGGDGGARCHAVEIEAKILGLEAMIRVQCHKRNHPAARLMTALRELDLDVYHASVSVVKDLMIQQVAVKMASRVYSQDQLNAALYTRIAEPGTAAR

B1: GST-OsGSK2 (enzyme)
chain: MDQPAPAPEPMLLDAQPPAAVACDKKQQEGEAPYAEGNDAVTGHIISTTIGGKNGEPKRTISYMAERVVGTGSFGIVFQAKCLETGETVAIKKVLQDRRYKNRELQLMRAMDHPNVISLKHCFFSTTSRDELFLNLVMEYVPETLYRVLKHYSNANHRMPLIYVKLYMYQLFRGLAYIHTVPGVCHRDVKPQNVLVDPLTHQVKLCDFGSAKTLVPGEPNISYICSRYYRAPELIFGATEYTTSIDIWSAGCVLAELLLGQPLFPGESAVDQLVEIIKVLGTPTREEIRCMNPNYTEFRFPQIKAHPWHKVFHKRMPPEAIDLASRLLQYSPSLRCTALDACAHPFFDELREPNARLPNGRPFPPLFNFKHELANSSQELISRLIPEHVRRQATHNFFNTGS
Kd: 40.4 nM
